Experimental data published in paper PMC5586252 (2017).
Where no end group is shown, it is not given here.

Key:
[1] = target: B′α regulatory subunit (UniProt Q15172 1-486); experiment: BLI
[2] = target: T1, B′γ1 regulatory subunit (UniProt Q13362-2 1-449); experiment: BLI
[3] = target: PP2A-B′γ1 holoenzyme (UniProt P30153 1-589; P67775 1-309; Q13362-2 1-449); experiment: BLI
[4] = target: T1, B′γ1 regulatory subunit; experiment: ITC

B′α regulatory subunit, sequence (Q15172 whole entry): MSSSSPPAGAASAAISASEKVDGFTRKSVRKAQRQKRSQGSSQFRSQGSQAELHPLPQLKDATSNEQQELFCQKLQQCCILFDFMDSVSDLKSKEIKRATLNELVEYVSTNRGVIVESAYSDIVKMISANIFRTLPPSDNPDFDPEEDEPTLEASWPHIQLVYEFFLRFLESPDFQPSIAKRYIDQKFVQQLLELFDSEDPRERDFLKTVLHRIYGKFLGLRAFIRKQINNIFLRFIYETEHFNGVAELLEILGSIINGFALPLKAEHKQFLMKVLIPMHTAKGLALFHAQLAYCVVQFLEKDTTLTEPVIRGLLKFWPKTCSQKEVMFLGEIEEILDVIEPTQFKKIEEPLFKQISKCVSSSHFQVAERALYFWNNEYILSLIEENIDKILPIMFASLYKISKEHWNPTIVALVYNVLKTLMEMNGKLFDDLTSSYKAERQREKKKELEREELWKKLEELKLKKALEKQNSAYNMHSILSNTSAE
PP2A-B′γ1 holoenzyme, sequence (P30153 whole entry, chain 1 of 3, other chains not shown): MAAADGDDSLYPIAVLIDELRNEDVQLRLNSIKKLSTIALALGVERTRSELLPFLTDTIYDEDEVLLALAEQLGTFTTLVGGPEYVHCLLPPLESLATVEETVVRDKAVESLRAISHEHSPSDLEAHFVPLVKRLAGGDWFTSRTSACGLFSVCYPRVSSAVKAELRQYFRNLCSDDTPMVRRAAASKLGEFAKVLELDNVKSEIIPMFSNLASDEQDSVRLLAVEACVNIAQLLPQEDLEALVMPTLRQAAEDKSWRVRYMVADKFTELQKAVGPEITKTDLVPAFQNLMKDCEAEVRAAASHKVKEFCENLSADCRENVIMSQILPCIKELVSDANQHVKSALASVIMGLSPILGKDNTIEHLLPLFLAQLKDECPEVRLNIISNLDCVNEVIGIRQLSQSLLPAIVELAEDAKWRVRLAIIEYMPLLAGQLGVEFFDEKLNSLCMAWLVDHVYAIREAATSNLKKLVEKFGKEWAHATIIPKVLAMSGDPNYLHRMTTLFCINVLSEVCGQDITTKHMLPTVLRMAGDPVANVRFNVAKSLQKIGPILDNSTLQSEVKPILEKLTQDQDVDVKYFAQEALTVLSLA
PP2A-B′γ1 holoenzyme, sequence (P67775 whole entry, chain 2 of 3, other chains not shown): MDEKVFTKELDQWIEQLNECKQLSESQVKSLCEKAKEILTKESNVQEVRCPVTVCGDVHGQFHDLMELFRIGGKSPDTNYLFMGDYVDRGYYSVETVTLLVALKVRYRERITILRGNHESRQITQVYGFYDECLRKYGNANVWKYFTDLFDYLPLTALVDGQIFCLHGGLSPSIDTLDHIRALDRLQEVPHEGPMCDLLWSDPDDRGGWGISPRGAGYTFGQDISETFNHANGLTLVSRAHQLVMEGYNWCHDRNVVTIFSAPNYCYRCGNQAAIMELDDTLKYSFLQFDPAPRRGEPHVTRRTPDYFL

Binder | Kd [1] [nM] | Kd [2] [nM] | Kd [3] [nM] | Kd [4] [nM]
NKRLSTIDEEGS [Cyk4 peptide S149E] |  |  |  | 1590
LSTIDEEGE [Cyk4 S149E/S151E peptide (synthetic, phosphomimetic)] |  |  |  | 1300
LETIPESEPSGMNRIL [GST-tagged DENND2C peptide (B′-binding motif)] |  | 530 | 221 | 
FQHNRKLESVAEEHEI [GST-tagged KIAA1524 (CIP2A) peptide (B′-binding motif)] | 330 | 121 | 310 | 
LSTIDESGS (synthetic peptide; exact ends and termini not given, the printed motif 143-LSTIDESGS-151 is used as the core) [native Cyk4 peptide (synthetic)] |  |  |  | 22700
LSSIPEASEYDWRNYQ [GST-tagged C3orf67 peptide (B′-binding motif)] | 450 | 62 | 43 | 

Further lines, results first:

Kd [1] [nM] | Kd [2] [nM] | Kd [3] [nM] | Kd [4] [nM] | Binder
197 | 340 | 121 |  | KLPHVLSSIAEEEHHL [GST-tagged SYT16 peptide (B′-binding motif)]
490 | 161 |  |  | QNQFSEHDKTLYRIPE [GST-tagged TJP1 peptide (B′-binding motif)]
1090 | 2100 | 320 |  | YQPLECIVEETEGKLN (not fully specified) [GST-tagged ANKHD1 peptide (B′-binding motif)]
226 | 43 | 34 |  | IKKLSPIIEDSREATH [GST-tagged BUB1B peptide (B′-binding motif)]
11800 | 3000 |  |  | HVLYPIPESSSDSPLA [GST-tagged STON1 peptide (B′-binding motif)]
